Laboratory results: the Immune Epitope Database (IEDB)

Key:
HLA-A*02:01 [1] = assay: IEDB peptide-MHC binding, purified MHC/competitive/fluorescence; filed as Kd, often an IC50 or EC50 that approximates it; ≥ and ≤ were set here for values at or beyond the usual limits of such assays
HLA-A*30:02 = assay: IEDB peptide-MHC binding, purified MHC/competitive/radioactivity; filed as Kd, often an IC50 or EC50 that approximates it; ≥ and ≤ were set here for values at or beyond the usual limits of such assays
HLA-A*01:01 = assay: as above
HLA-A*26:01 = assay: as above
HLA-A*29:02 = assay: as above
HLA-A*23:01 = assay: as above
HLA-A*24:02 = assay: as above
HLA-A*02:01 [2] = assay: IEDB peptide-MHC binding, purified MHC/competitive/fluorescence; ≥ and ≤ were set here for values at or beyond the usual limits of such assays
HLA-A*02:01 [3] = assay: IEDB peptide-MHC binding, purified MHC/direct/fluorescence; filed as Kd, often an IC50 or EC50 that approximates it; ≥ and ≤ were set here for values at or beyond the usual limits of such assays
HLA-A*69:01 = assay: as above
HLA-A*02:02 = assay: IEDB peptide-MHC binding, purified MHC/competitive/radioactivity; filed as Kd, often an IC50 or EC50 that approximates it; ≥ and ≤ were set here for values at or beyond the usual limits of such assays
HLA-A*02:06 = assay: as above
HLA-A*02:03 = assay: as above
[4] = source organism: Vaccinia virus WR
[5] = source organism: Dengue virus 4 Dominica/814669/1981
[6] = source organism: Mammarenavirus whitewaterense
[7] = source organism: Dengue virus 2 Jamaica/1409/1983
[8] = source organism: Dengue virus 1 Brazil/97-11/1997
[9] = source organism: Zaire ebolavirus
[10] = source organism: Dengue virus 3 Sri Lanka/1266/2000
[11] = source organism: Mammarenavirus guanaritoense
[12] = source organism: Dengue virus 3 Martinique/1243/1999
[13] = source organism: Dengue virus 4 Philippines/H241/1956
[14] = source organism: Mammarenavirus brazilense
[15] = source organism: Mammarenavirus machupoense
[16] = source organism: Aromatoleum aromaticum
[17] = source organism: Sudan ebolavirus
[18] = source organism: Lymphocytic choriomeningitis virus (strain Armstrong)
[19] = source organism: Giardia lamblia ATCC 50803
[20] = source organism: Salmonella enterica subsp. enterica serovar Typhimurium
[21] = source organism: SARS coronavirus Tor2
[22] = source organism: Vibrio vulnificus YJ016

ILFPDDVQEL
Kd (HLA-A*02:01 [1]; [4]): 1.1 nM

KAALSEGVY
Kd (HLA-A*30:02; [5]): 15 nM

LRIPTHRHI
Kd (HLA-A*01:01; [6]): ≥ 25700 nM | Kd (HLA-A*26:01; [6]): ≥ 77900 nM | Kd (HLA-A*29:02; [6]): ≥ 33700 nM | Kd (HLA-A*30:02; [6]): ≥ 76900 nM | Kd (HLA-A*23:01; [6]): ≥ 71500 nM | Kd (HLA-A*24:02; [6]): ≥ 77500 nM

SYLAGAGLL
Kd (HLA-A*24:02; [7]): 19.4 nM

DNPYKTWAY
Kd (HLA-A*26:01; [8]): 6390 nM

NNNTHHQDT
IC50 (HLA-A*02:01 [2]; [9]): ≥ 253000 nM

VSLTCSNTIF
Kd (HLA-A*01:01; [10]): 7760 nM

YVQRFFLRV
Kd (HLA-A*01:01; [11]): 1020 nM | Kd (HLA-A*26:01; [11]): ≥ 77900 nM | Kd (HLA-A*29:02; [11]): 767 nM | Kd (HLA-A*30:02; [11]): 732 nM | Kd (HLA-A*23:01; [11]): 4270 nM | Kd (HLA-A*24:02; [11]): ≥ 26600 nM

RTLLGLILFV
Kd (HLA-A*02:01 [1]; source organism: Variola virus): 1270 nM

QLLEAVYGN
IC50 (HLA-A*02:01 [2]; source organism: Vaccinia virus Copenhagen): 21600 nM

ILDNQGRVV
Kd (HLA-A*02:01 [3]; source organism: Venezuelan equine encephalitis virus): 1210 nM

KVDTTHVSKV
Kd (HLA-A*02:01 [1]; source organism: Myxoma virus): 42.3 nM

LIGIEILNT
IC50 (HLA-A*02:01 [2]; [4]): ≥ 147000 nM

TWRDMAHTLI
Kd (HLA-A*24:02; [12]): 387 nM

ENPYKTWAYH
Kd (HLA-A*26:01; [12]): ≥ 34100 nM

AILGDTAWDF
Kd (HLA-A*23:01; [7]): 3710 nM

TYQLWTALV
Kd (HLA-A*23:01; [10]): 58.3 nM | Kd (HLA-A*24:02; [10]): 48.3 nM

QVFLKMRRIF
Kd (HLA-A*29:02; [6]): 9080 nM | Kd (HLA-A*23:01; [6]): 401 nM | Kd (HLA-A*24:02; [6]): 12300 nM

TSETFSMGLL
Kd (HLA-A*01:01; [13]): 242 nM

LEELLPAVS
IC50 (HLA-A*02:01 [2]; [9]): ≥ 141000 nM

GYATQTVGPW
Kd (HLA-A*23:01; [13]): 549 nM | Kd (HLA-A*24:02; [13]): 1290 nM

MYEMHRESLL
Kd (HLA-A*29:02; [11]): 9880 nM | Kd (HLA-A*23:01; [11]): 870 nM | Kd (HLA-A*24:02; [11]): 3170 nM

RQMATTTNPL
Kd (HLA-A*02:01 [1]; source organism: Influenza A virus (A/parakeet/Chiba/1/97(H9N2))): 393 nM

RLKGVTCRLF
Kd (HLA-A*29:02; [14]): 395 nM | Kd (HLA-A*23:01; [14]): 98.3 nM | Kd (HLA-A*24:02; [14]): 719 nM

MFGGVSWMI
Kd (HLA-A*23:01; [5]): 41.8 nM | Kd (HLA-A*24:02; [5]): 78.3 nM

AWLVHRQWFL
Kd (HLA-A*23:01; [7]): 97.7 nM

EYFMCFKYLL
Kd (HLA-A*29:02; [15]): 49 nM | Kd (HLA-A*23:01; [15]): 9.3 nM | Kd (HLA-A*24:02; [15]): 192 nM

EVKQDEDGSF
Kd (HLA-A*26:01; [13]): 69.2 nM

LSSTRVPNY
Kd (HLA-A*01:01; [13]): 2040 nM | Kd (HLA-A*30:02; [13]): 194 nM

VLEGFEGDL
Kd (HLA-A*69:01; [16]): ≥ 20000 nM | Kd (HLA-A*02:01 [3]; [16]): 17000 nM

KTVKNVDII
Kd (HLA-A*02:02; [4]): 607 nM | Kd (HLA-A*02:06; [4]): 698 nM | Kd (HLA-A*02:03; [4]): 1790 nM

EDLIEWAME
IC50 (HLA-A*02:01 [2]; source organism: Vaccinia virus): ≥ 94700 nM

SVMATEEPT
IC50 (HLA-A*02:01 [2]; [17]): ≥ 115000 nM

KIMEIVSHL
Kd (HLA-A*02:02; [4]): 79 nM | Kd (HLA-A*02:06; [4]): 29.7 nM | Kd (HLA-A*02:03; [4]): 10.3 nM

WHLGKLELDF
Kd (HLA-A*23:01; [8]): 296 nM

IVFGIYKDNL
Kd (HLA-A*02:02; [4]): 187 nM | Kd (HLA-A*02:06; [4]): 47.8 nM | Kd (HLA-A*02:03; [4]): 792 nM

NLEGSGVST
IC50 (HLA-A*02:01 [2]; [17]): 67600 nM

ASEAVNDSRF
Kd (HLA-A*01:01; [13]): ≥ 31400 nM

WTEAKMLLD
Kd (HLA-A*01:01; [8]): 943 nM

TVIKTLLEV
Kd (HLA-A*02:02; [6]): 2010 nM | Kd (HLA-A*02:06; [6]): 16.6 nM | Kd (HLA-A*02:03; [6]): 52.6 nM

ILFQNNDINA
Kd (HLA-A*02:02; [4]): 23.3 nM | Kd (HLA-A*02:06; [4]): 3180 nM | Kd (HLA-A*02:03; [4]): 407 nM

IVPDIKLDA
Kd (HLA-A*02:02; [4]): 6390 nM | Kd (HLA-A*02:06; [4]): 3430 nM | Kd (HLA-A*02:03; [4]): 15700 nM

SFYSDPKRFF
Kd (HLA-A*29:02; [11]): 124 nM | Kd (HLA-A*23:01; [11]): 226 nM | Kd (HLA-A*24:02; [11]): 740 nM

DVIPMVTQM
Kd (HLA-A*26:01; source organism: Dengue virus 2 Peru/IQT2913/1996): 64.2 nM

CWCNSTSTW
Kd (HLA-A*23:01; [7]): 998 nM | Kd (HLA-A*24:02; [7]): 1250 nM

TAIRAGYSIV
Kd (HLA-A*02:02; [4]): 6820 nM | Kd (HLA-A*02:06; [4]): 8590 nM | Kd (HLA-A*02:03; [4]): 71.8 nM

MIHKTYIDV
Kd (HLA-A*02:02; [4]): 1400 nM | Kd (HLA-A*02:06; [4]): 126 nM | Kd (HLA-A*02:03; [4]): 15.2 nM

ALMDCIIFES
Kd (HLA-A*02:02; [18]): 2.13 nM | Kd (HLA-A*02:06; [18]): 12.8 nM | Kd (HLA-A*02:03; [18]): 16.4 nM

YTYPDSLEE
IC50 (HLA-A*02:01 [2]; [9]): ≥ 264000 nM

TSQVPKLLL
IC50 (HLA-A*02:01 [2]; source organism: Variola virus): 47400 nM

YKTWAYHGSY
Kd (HLA-A*30:02; [7]): 4220 nM

ALAPAPAEV
IC50 (HLA-A*02:01 [2]; source organism: Homo sapiens): 52 nM

DIPTFNSLNT
Kd (HLA-A*02:02; [4]): 2020 nM | Kd (HLA-A*02:06; [4]): 45.3 nM | Kd (HLA-A*02:03; [4]): 16600 nM

FMYEDALKS
Kd (HLA-A*69:01; [19]): 1360 nM | Kd (HLA-A*02:01 [3]; [19]): 43.5 nM

ALSMADIFI
Kd (HLA-A*69:01; [20]): 1080 nM | Kd (HLA-A*02:01 [3]; [20]): 106 nM

SKIPGGAMY
Kd (HLA-A*30:02; [12]): 365 nM

LIDFYLCFL
Kd (HLA-A*02:02; [21]): 8.31 nM | Kd (HLA-A*02:06; [21]): 10.9 nM | Kd (HLA-A*02:03; [21]): 61 nM

VQEFIFSAL
Kd (HLA-A*02:02; [4]): 419 nM | Kd (HLA-A*02:06; [4]): 198 nM | Kd (HLA-A*02:03; [4]): 466 nM

IGNENYLDY
Kd (HLA-A*30:02; [8]): 956 nM

NASKTINALV
Kd (HLA-A*02:02; [4]): 765 nM | Kd (HLA-A*02:06; [4]): 3220 nM | Kd (HLA-A*02:03; [4]): 274 nM

RQLQREGLV
Kd (HLA-A*69:01; [22]): ≥ 20000 nM | Kd (HLA-A*02:01 [3]; [22]): ≥ 5000 nM

PLISILMIFI
Kd (HLA-A*02:02; [4]): 433 nM | Kd (HLA-A*02:06; [4]): 2420 nM | Kd (HLA-A*02:03; [4]): 769 nM
